The record followed here is patent publication US20150246947A1 (BAXALTA, published 2015).

Experiment [1] deals with T1, human Protein S (human, UniProt P07225 42-676).
T1 construct: Called 'full length Protein S' / 'human full-length Protein S'; It was coated on plates (ELISA), Eu-labeled (LANCE) or immobilized on a chip (Biacore); also called PS; full length Protein S
T1 sequence: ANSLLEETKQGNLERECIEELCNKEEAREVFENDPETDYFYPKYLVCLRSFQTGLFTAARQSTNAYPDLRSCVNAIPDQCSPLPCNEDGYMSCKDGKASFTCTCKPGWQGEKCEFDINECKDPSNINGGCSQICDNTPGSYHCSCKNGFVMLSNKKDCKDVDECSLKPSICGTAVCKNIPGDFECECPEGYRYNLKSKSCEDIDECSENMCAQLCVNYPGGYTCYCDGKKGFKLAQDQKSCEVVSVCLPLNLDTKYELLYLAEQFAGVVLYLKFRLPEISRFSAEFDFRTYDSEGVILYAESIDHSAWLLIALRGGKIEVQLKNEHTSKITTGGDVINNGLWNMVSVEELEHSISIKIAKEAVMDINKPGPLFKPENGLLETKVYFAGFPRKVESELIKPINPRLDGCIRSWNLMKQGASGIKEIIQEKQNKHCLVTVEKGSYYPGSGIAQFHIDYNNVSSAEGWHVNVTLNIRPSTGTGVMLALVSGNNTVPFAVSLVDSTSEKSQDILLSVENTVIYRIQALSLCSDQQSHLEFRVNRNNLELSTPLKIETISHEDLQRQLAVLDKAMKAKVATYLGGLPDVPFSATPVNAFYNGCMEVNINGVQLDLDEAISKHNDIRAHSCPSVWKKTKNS
Put plainly: LANCE TR-FRET; peptide added to preformed C4BP/Protein S complex; competitor C4BP. As for the experimental part: To investigate the effect of the peptides described herein on PS/C4BP complexes, a LANCE IC50 assay was established using methods similar to those described above. JBS2572 or JBS3216 was added to a preformed C4BP/PS complex. Changes in the complex concentration were followed by recording the TR-FRET signal. For both peptides, a time- and concentration-dependent dissociation of the C4BP/PS complex was observed. […] The time-dependency of the complex reduction was similar for both peptides. After two hours of incubation in the presence of 100 nM JBS2572 or JBS3216, the C4BP/PS complex was reduced to 60% and 50%, respectively. In addition, binding of biotinylated JBS2572 to Protein S was inhibited by C4BP in the LANCE IC50 assay. Pull-down experiments where JBS2697 was coupled to streptavidin sepharose and incubated for one hour at room temperature with (a) Protein S (1.6 pmol) (b) C4BP (8.5 pmol) and (c) Protein S (1.6 pmol)+C4BP (8.5 pmol) supported the results from the modified LANCE IC50 assay. JBS2697 interacted with free Protein S only from experiment (a) with Protein S alone and from experiment (c) with the C4BP-Protein S mixture.

Experiment [2] addresses T1, human Protein S. Kind of experiment: LANCE TR-FRET competition; Protein S 2 nM, competitor tracer JBS0684 60 nM; Tecan F500 reader. As for the experimental part: Peptides also were characterized in a competition, homogenous europium-based TR-FRET assay (LANCE IC50 assay) using JBS0684 as a tracer (i.e., competitor for Protein S binding). […] The final volume was 50 μl/well. […] Binding of tracer peptides to soluble europium-labeled Protein S was detected by Streptavidin labeled with an acceptor fluorophor (ULight™). Inhibition of tracer-binding to Protein S by a non-biotinylated peptide results in a decrease of TR-FRET between the Eu-labeled Protein S and ULight™-labeled Streptavidin. IC50 values were obtained from peptide titration curves at constant tracer concentration using non-linear regression of the fluorescence emission signals at 665 nm.

The target in experiment [3] is T1, human Protein S. Put plainly: cell-based or functional assay.
Experiment [4] has as its target T1, human Protein S. Put plainly: competition ELISA IC50. The protocol:
The competition (IC50) ELISA was performed using biotinylated tracer peptide JBS0684 to compete for Protein S-binding with candidate peptides. Peptides that compete with the tracer bind the same region of Protein S as the tracer (and each other). Ninety-six well PolySorp plates (Nunc) were coated with 3 μg/mL Protein S in coating buffer (15 mM Na₂CO₃, 35 mM NaHCO₃, pH 9.6) over night. […] Plates were then washed three times with HNaT. JBS0684 was applied at a concentration corresponding to the EC90 value determined in the binding ELISA. A competitor stock solution of peptide (10 mM) was diluted 1/33.3 in HNaT without HSA, and a serial 1/3 dilution was prepared with HNaT with 3% DMSO. The dilution was further diluted with the biotinylated tracer peptide in a ratio of […] (20 μl competitor dilution and 100 μl tracer peptide). The mixture of competitor and tracer peptide was applied to the Protein S-coated microtiter plate and incubated for 1.5 hours. The plates were washed three times with HNaT. Peptide-Protein S binding was detected by applying HRP-conjugated streptavidin to the microtiter plate, incubating the mixture for one hour, washing the plate three times with HNaT, applying TMB (3,3′5,5′-Tetramethylbenzidin), and detecting the subsequent chromogenic conversion of TMB by HRP. IC50 measurements of peptides are provided herein (see, e.g., Table 3). […]

The target of experiment [5] is T1, human Protein S. Put plainly: cell-based or functional assay. The source holds these as a separate data set.
Experiment [6] deals with T1, human Protein S. Put plainly: competition ELISA; Protein S coated; competitor biotinylated tracer JBS0684. As for the experimental part:
The competition (IC50) ELISA was performed using biotinylated tracer peptide JBS0684 to compete for Protein S-binding with candidate peptides. Peptides that compete with the tracer bind the same region of Protein S as the tracer (and each other). Ninety-six well PolySorp plates (Nunc) were coated with 3 μg/mL Protein S in coating buffer (15 mM Na₂CO₃, 35 mM NaHCO₃, pH 9.6) over night. […] Plates were then washed three times with HNaT. JBS0684 was applied at a concentration corresponding to the EC90 value determined in the binding ELISA. A competitor stock solution of peptide (10 mM) was diluted 1/33.3 in HNaT without HSA, and a serial 1/3 dilution was prepared with HNaT with 3% DMSO. The dilution was further diluted with the biotinylated tracer peptide in a ratio of 1:6 (20 μl competitor dilution and 100 μl tracer peptide). The mixture of competitor and tracer peptide was applied to the Protein S-coated microtiter plate and incubated for 1.5 hours. The plates were washed three times with HNaT. Peptide-Protein S binding was detected by applying HRP-conjugated streptavidin to the microtiter plate, incubating the mixture for one hour, washing the plate three times with HNaT, applying TMB (3,3′5,5′-Tetramethylbenzidin), and detecting the subsequent chromogenic conversion of TMB by HRP. IC50 measurements of peptides are provided herein (see, e.g., Table 3).

Experiment [7] addresses T1, human Protein S. Kind of experiment: Biacore (SPR), Protein S immobilized, 37 °C. As for the experimental part: Protein S affinity also was determined via Biacore (Biacore 3000 or Biacore T200) using human full-length Protein S and human GAS6. Briefly, 1000 RU of Protein S or GAS6 were immobilized on a CMS chip. In order to probe the kinetics of Protein S binding peptides to Protein S, the peptides were injected at various concentrations in a HBS-buffer containing 3 mM CaCl₂ and 1% DMSO to the flow cell and allowed to interact with the immobilized proteins on the sensor chip. The chip could be regenerated with 4 M MgCl₂ in HBS-buffer. Sensorgrams were fitted to a Langmuir binding model for the determination of kₒₙ and koff and the calculation of KD. Peptides were tested on their specificity to Protein S with peptide binding studies on the anti-target GAS6.

B1: JBS2572 (peptide)
peptide: Ac-TGLVSAGWYDYNFDHYREFT-NH2
notes: also called parent peptide JBS2572
As for B1, the IC50 in experiment [1] turned out to be 2 nM. The IC50 in experiment [2] is approximately 10 nM. Also, the “fold increase of activity in the CAT-assay compared to JBS2512” value in experiment [3] is 1.6 fold. In experiment [4], the “fold increase in affinity compared to JBS2512” value was 1.6 fold. The “CAT EC50” value in experiment [5] stood at 151 nM. The IC50 in experiment [6] was determined as 2.5 nM. In experiment [7], this molecule showed a Kd of 3.8 nM, a koff of 0.00431 s⁻¹ and a kon of 1.14e+06 M⁻¹ s⁻¹.
